Read-outs that look alike come from different tables or passages of the source.
What was measured:
[1] = molecular target: taxol-stabilized microtubules (porcine brain tubulin) (porcine) (UniProt P02550); assay: co-sedimentation
[2] = molecular target: taxol-stabilized microtubules (porcine brain tubulin) (porcine) (UniProt P02550); assay: co-sedimentation; remark: listed apart in the source

stoichiometry N (mol per mol of tubulin) [1] | stoichiometry N (mol per mol of tubulin) [2] | Molecule
0.85 |  | ICR2-His6 (from UniProt Q9ZQC5 56-583) (natural protein)
0.4 | 0.35 | ICR1-His6 (natural protein) MPRPRVSELSQRQAPRLRSSSSTSDSNHSNRLITTDQSFKPGVDRKSPRSGGPNSDPLGQKKLGGRISDLESQLGQAQEELRLLKEQLANAEAVKKQAQDELHKKSKKPNPLARVEESATEAERIDRDEIPGDVQKETDVFEVPVEKIAVEEEELRSGNDEAEKLVAKEDEIKMLKARLYDMEKEHESLGKENESLKNQLSDSASEISNVKANEDEMVSKVSRIGEELEESRAKTAHLKEKLESMEEAKDALEAEMKKLRVQTEQWRKAADAAAAVLSGEFEMNGRDRSGSTEKYYAGGFFDPSAGFMDPPGMADDYDDGLGSGKRKSSGMKMFGELWRKKGQK

Reference: article doi:10.1101/2021.01.08.425872
